Laboratory results reported in patent US20220119501A1 (INVISISHIELD TECHNOLOGIES, published 2022).

B1: anti-S1 (SARS-CoV-2) scFv clone #19 (scFv)
scFv: QSALTQPASVSGSPGQSITISCTGTSSDVGGYNYVSWYQQHPGKVPKLMIYEVSNRPSGVSNRFSGSKSGNTASLTISGLQAEDEADYYCSSYTSGDTLVFGGGTKVTVLGSRGGGGSGGGGSGGGGSLEMAELQLVESGGGVVQPGRSPRLSCAASGFTFSNYPMHWVRQAPGKGLEWVAVISYDGNHKYYADSLEGRFSISRDNSKNTLYLQMNSLTAADTAVYYCARGGGMGGLDSWGQGTLVTVSSTSGQAGQ
notes: also called phage clone #19
B2: anti-S1 (SARS-CoV-2) scFv clone #09 (scFv)
scFv: NFMLTQPHSVSESPGKTVSISCTGSSGSIASNYVQWYQQRPGSAPTTVIYEDKERPSGVPNRFSGSIDRSSNSASLTISGLKTEDEADYYCQSYDDGNVVFGGGTKLTVLGSRGGGGSGGGGSGGGGSLEMAEVQLVESGAEVKKPGASVKVSCKASGYTFTSYGISWVRQAPGQGLEWMGWISAYNGNTNYAQKFQDRVTLTTDTSTNTAYMLLRSLRSDDTAVYYCARTWYSYHYDIWGQGTLVTVSSTSGQAGQ
notes: also called phage clone #09
B3: anti-S1 (SARS-CoV-2) scFv clone #20 (scFv)
scFv: SYVLTQPPSASGTPGQRVTISCSGSSSNIGSNTVNWYQQLPGTAPKLLIYSNNQRPSGVPDRFSASKSGTSASLAISGFQSEDEADYYCAAWDDSLDGYVFGTGTKVTVLGSRGGGGSGGGGSGGGGSLEMAEVQLVQSGAEVKKPGESLKISCKGSGYSFPSYWIGWVRQMPGKGLEWMGIIYPGDSDTRYSPSFQGQVTISADKSISTAYLQWSSLKASDTAMYYCARGSYTYMGGSYDYWGQGTLVTVSSTSGQAGQ
notes: also called phage clone #20
B4: anti-S1 (SARS-CoV-2) scFv clone #13 (scFv)
scFv: QSVLTQPPSASGTPGQRVTISCSGSSSNIGSNYVYWYQQLPGTAPKLLIYRNNQRPSGVPDRFSGSKSGTSASLAISGLRSEDEADYYCAAWDDSLSGPNYVFGTGTKVTVLGSRGGGGSGGGGSGGGGSLEMAQVQLVQSGAEVKKPGSSVKVSCKASGGTFSSYAISWVRQAPGQGLEWMGWISGYNGNTNYAQKLQGRVTMTTDTSTSTAYMELRSLRSDDTAVYYCARTGWSKGEKVTTWGEWFYVDYWGQGTLVTVSSTSGQAGQ
notes: also called phage clone #13
B5: anti-S1 (SARS-CoV-2) scFv clone #15 (scFv)
scFv: QSVLTQPPSVSEAPRQRVTISCSGSSSNIGNNAVNWYQQLPGKAPKLLIYFNDVQSSGVSDRFSGSKSGTSASLAISGLQSEDEADYYCAAWDDSLNAVLFGGGTKLTVLGSRGGGGSGGGGSGGGGSLEMAEVQLVQSGAEVKKPGASVKVSCKASGYTFTGYYMHWVRQAPGQGLEWMGRINPNSGGTDYARKFRGRVTMTRDTSISTAYMELSRLTSDDTAMYYCARGYGDDWGQGTLVTVSSTSGQAGQ
notes: also called phage clone #15
B6: anti-S1 (SARS-CoV-2) scFv clone #30 (scFv)
scFv: QSALTQPPSASGSPGQSVTISCTGTSSDVGGYDYVSWYQQHPGKAPKLMIYEVSKRPSGVSNRFSGSKSGNTASLTISGLQAEDEADYYCSSYTSSSTFPYVFGTGTKVTVLGSRGGGGSGGGGSGGGGSLEMAEVQLVESGGGLEQPGGSLRLSCAASGFTFSSYAMSWVRQAPGKGLEWVSAISASGNSTFYADSVKGRFTISRDNSKHTLDLQMNSLRADDTAVYYCARNSDVWGQGTLVTVSSTSGQAGQ
notes: also called phage clone #30
B7: anti-S1 (SARS-CoV-2) scFv clone #26 (scFv)
scFv: QAVLTQAPSASGTLGQQVTISCSGTTSNIGRNTVNWYQHLPGTAPKLLIFVSNQRPSGVPDRFSGSKSGTSASLVISGLQSEDEADYYCGAWDDSLDGMLFGGGTKLTVLGSRGGGGSGGGGSGGGGSLEMAQVQLVQSGAEVKKPGASVKVSCKASGYTFTSYGISWVRQAPGQGLEWMGWISAYNGNTNYAQKLQGRVTMTTDTSTSTAYMELRSLRSDDTAVYYCARGYYGDLDPWGQGTLVTVSSTSGQAGQ

The binders below were run against T1, S1 subunit polypeptide of SARS-CoV-2 spike protein (isolate 2019-nCoV, WIV4) (SARS-CoV-2 (isolate 2019-nCoV, WIV4), UniProt P0DTC2 16-685) (assay: phage ELISA on SARS-CoV-2 spike S1 (FIG. 1)).

Binder | binding result
B1 | binds
B2 | binds
B3 | binds
B4 | binds
B5 | binds
B6 | binds

What follows are binders tested against T1, S1 subunit polypeptide of SARS-CoV-2 … (assay: not given).

Binder | IC50 [nM]
B7 | 1.33
